The numbers were not newly measured in PMC7288020, which cites them from elsewhere.

pKd: −log10 of the molar value.

One may read the pKd as −log10 of the Kd, conventionally taken in molar units.

The series addresses Aβ1-40 Aβ 1-40 (Homo sapiens) (UniProt P05067).
Sequence of UniProt P05067 (P05067 1-40): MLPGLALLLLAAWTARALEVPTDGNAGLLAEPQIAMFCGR

For the substance ApoA1 (from UniProt P02647), the negative-log Kd (pKd) is 8.22.
